For one assay, the target named is T1, cynomolgus CD19 (cynomolgus (Macaca fascicularis), UniProt A0A2K5W8L9 20-557).
T1 construct: whole, on cells; also called CD19 from cynomolgus monkey (Macaca fascicularis)
T1 sequence: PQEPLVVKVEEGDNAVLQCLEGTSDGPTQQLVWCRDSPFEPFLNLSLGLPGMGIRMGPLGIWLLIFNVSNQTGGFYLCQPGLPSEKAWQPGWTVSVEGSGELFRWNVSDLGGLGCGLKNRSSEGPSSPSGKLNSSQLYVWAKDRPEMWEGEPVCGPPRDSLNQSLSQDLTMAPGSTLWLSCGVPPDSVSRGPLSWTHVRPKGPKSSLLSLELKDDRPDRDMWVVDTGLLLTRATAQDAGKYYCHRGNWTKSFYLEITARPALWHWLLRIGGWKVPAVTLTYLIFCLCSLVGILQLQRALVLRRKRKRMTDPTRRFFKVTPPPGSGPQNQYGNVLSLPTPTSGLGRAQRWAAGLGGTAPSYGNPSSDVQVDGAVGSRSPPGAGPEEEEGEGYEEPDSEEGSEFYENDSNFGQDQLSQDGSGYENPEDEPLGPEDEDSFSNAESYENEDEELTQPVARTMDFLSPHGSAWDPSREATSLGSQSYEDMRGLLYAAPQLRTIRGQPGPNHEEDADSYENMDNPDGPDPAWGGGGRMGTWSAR
Nature of the assay: flow cytometry on monkey blood lymphocytes (method for the murine antibody not detailed). On the technique in general: Flow cytometry measures light scatter and fluorescence of single cells or particles in a stream.

In the next assay the target is T2, rhesus CD19 (rhesus (Macaca mulatta), UniProt F7F486 20-557).
T2 construct: whole, on cells; also called CD19 from rhesus monkey (Macaca mulatta)
T2 sequence: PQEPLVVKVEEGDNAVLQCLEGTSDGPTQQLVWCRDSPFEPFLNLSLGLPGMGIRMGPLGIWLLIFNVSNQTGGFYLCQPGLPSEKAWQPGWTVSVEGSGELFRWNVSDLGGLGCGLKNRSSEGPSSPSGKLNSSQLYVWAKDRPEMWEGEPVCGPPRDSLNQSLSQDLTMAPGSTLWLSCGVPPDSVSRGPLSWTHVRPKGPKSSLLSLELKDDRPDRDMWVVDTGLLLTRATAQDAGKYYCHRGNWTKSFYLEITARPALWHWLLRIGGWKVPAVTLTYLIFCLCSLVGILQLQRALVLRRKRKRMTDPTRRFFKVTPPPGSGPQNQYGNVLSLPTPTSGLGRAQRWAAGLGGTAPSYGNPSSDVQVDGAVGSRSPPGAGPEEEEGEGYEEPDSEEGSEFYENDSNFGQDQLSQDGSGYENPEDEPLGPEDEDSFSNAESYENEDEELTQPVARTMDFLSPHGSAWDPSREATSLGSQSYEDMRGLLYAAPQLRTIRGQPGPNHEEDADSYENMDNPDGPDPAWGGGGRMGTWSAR
Described as above.

Assay [1] concerns the target T3, human CD19 (human, UniProt P15391 20-556).
T3 construct: also called B-cell surface antigen B4; B-cell antigen CD19
T3 sequence: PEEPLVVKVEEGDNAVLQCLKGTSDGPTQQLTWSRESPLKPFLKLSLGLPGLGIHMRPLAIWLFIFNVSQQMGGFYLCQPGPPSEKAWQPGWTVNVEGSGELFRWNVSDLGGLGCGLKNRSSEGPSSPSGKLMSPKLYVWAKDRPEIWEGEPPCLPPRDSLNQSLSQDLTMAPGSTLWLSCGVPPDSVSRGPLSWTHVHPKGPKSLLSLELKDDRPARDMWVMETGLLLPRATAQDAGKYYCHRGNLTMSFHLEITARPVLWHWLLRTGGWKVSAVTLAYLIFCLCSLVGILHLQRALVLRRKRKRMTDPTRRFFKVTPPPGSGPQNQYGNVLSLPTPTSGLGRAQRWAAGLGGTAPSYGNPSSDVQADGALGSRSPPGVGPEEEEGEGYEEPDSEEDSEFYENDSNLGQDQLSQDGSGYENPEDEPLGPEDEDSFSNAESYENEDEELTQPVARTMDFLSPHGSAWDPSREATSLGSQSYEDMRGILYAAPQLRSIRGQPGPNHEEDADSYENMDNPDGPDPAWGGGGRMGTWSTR
The assay is described as follows: flow cytometry, binding to CD19 on RS4;11 cells, MFI against Log[Ab], nM.

Assay [2] concerns the target T4, human V158 FcγRIIIa (FcγR-His) (human, UniProt P08637 17-208, limits assumed).
T4 construct: Soluble His-tagged receptor injected as analyte in Biacore; not shown: His tag ('FcγR-His')
The assay is described as follows: Biacore SPR; IgG captured on protein A/G, FcγR-His injected; 1:1 model. As for the experimental part: (§1) Briefly, protein A/G was coupled to a flow cell of a CM5 chip. IgG was first diluted to 25 nM and immobilized to protein A/G channel to ˜1000 RUs. FcγR-His was serially diluted and injected at […] for 2 min followed by dissociation for 3 min. To determine KD the resulting sensorgrams are “group-fitted” using the 1:1 interaction model available in BlAevaluation software.

The target of a further assay is T5, FcγRIIa - H131 (human, UniProt P12318).
T5 construct: soluble His-tagged receptor; also called H131 FcγRIIa (FcγR-His)
T5 sequence (receptor chain, looked up): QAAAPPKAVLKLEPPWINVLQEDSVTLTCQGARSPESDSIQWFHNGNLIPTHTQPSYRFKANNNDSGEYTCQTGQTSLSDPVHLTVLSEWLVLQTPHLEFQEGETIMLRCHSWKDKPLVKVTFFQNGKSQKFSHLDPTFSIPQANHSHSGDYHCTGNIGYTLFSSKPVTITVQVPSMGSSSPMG
The assay is described as follows: Biacore SPR: IgG captured on protein A/G (CM5 chip), FcγR-His injected; KD from 1:1 group fit, plotted as -log(KD). How it is done: as §1
Background: Surface plasmon resonance follows binding to a sensor surface in real time, without labels.

For a further assay, the target named is T6, FcγRIIa - R131 (human, UniProt P12318).
T6 construct: soluble His-tagged receptor; also called R131 FcγRIIa (FcγR-His)
T6 sequence (receptor chain, looked up): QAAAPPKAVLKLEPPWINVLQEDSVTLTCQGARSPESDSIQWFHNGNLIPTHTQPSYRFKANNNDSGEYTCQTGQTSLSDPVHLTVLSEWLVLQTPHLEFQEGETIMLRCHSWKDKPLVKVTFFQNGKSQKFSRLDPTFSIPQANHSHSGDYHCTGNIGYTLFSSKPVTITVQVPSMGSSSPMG
The assay is described as above. How it is done:
as §1

Assay [3] has as its target T7, human F158 FcγRIIIa (FcγR-His) (human, UniProt P08637 17-208, limits assumed).
T7 construct: Soluble His-tagged receptor injected as analyte in Biacore; not shown: His tag ('FcγR-His')
Nature of the assay: Biacore SPR; IgG captured on protein A/G, FcγR-His injected; 1:1 model. How it is done: as §1

Assay [4] deals with T4, human V158 FcγRIIIa (FcγR-His). Nature of the assay: Biacore SPR; IgG captured on protein A/G, FcγR-His injected; reference is 4G7 IgG1 (WT). As for the experimental part: as §1
Assay [5] deals with T3, human CD19. The assay is described as follows: DELFIA time-resolved fluorometry competition on Raji cells; competitor tracer is Eu-labeled anti-CD19 (H0L0). How it is done:
Affinities of enhanced effector function anti-CD19 variants were determined by using the DELFIA® system (PerkinElmer Life Sciences) which is based on Time-Resolved Fluorometry (TRF). […] The assay is essentially applied as a competition assay for screening anti-CD19 antibodies of different affinities.

T4 sequence (P08637 17-208 F176V limits assumed): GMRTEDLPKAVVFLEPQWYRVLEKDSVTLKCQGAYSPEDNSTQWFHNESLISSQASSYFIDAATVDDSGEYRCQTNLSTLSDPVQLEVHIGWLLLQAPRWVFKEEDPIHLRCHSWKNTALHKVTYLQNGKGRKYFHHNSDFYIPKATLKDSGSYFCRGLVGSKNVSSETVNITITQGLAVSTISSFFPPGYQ
T7 sequence (P08637 17-208 limits assumed): as the sequence (P08637 17-208 F176V limits assumed) above, with V160F counted along it

B1: parental murine antibody of the anti-CD19 (4G7) (antibody, V domains shown)
VH: EVQLQQSGPELIKPGASVKMSCKASGYTFTSYVMHWVKQKPGQGLEWIGYINPYNDGTKYNEKFKGKATLTSDKSSSTAYMELSSLTSEDSAVYYCARGTYYYGSRVFDYWGQGTTLTVSS
VL: DIVMTQAAPSIPVTPGESVSISCRSSKSLLNSNGNTYLYWFLQRPGQSPQLLIYRMSNLASGVPDRFSGSGSGTAFTLRISRVEAEDVGVYYCMQHLEYPFTFGAGTKLELK
notes: also called its parental murine antibody
As for B1, the binding result with cynomolgus CD19 and in the assay with rhesus CD19 was “no binding” in each case.

B2: 4G7 H1L1 Hybrid S239D/I332E (antibody, human IgG1, kappa, V domains shown)
VH: EVQLVESGGGLVKPGGSLKLSCAASGYTFTSYVMHWVRQAPGKGLEWIGYINPYNDGTKYNEKFQGRVTISSDKSISTAYMELSSLRSEDTAMYYCARGTYYYGSRVFDYWGQGTLVTVSS
VL: DIVMTQSPATLSLSPGERATLSCRSSKSLLNSNGNTYLYWFQQKPGQSPQLLIYRMSNLASGVPDRFSGSGSGTEFTLTISSLEPEDFAVYYCMQHLEYPFTFGAGTKLEIKR
notes: also called H1L1 mAb
As usually defined, the EC50 (read off the curve) is the concentration needed to bring the measured effect to its halfway point. B2: in the assay with human CD19 [1], the “EC50 (read off the curve)” value was around 6 nM.

B3: 4G7 IgG1 (chimeric: murine 4G7 H0/L0 variable regions, human IgG1 and kappa constant regions) (antibody)
heavy: not shown
light: DIVMTQAAPSIPVTPGESVSISCRSSKSLLNSNGNTYLYWFLQRPGQSPQLLIYRMSNLASGVPDRFSGSGSGTAFTLRISRVEAEDVGVYYCMQHLEYPFTFGAGTKLELKRTVAAPSVFIFPPSDEQLKSGTASVVCLLNNFYPREAKVQWKVDNALQSGNSQESVTEQDSKDSTYSLSSTLTLSKADYEKHKVYACEVTHQGLSSPVTKSFNRGEC
notes: also called 4G7 IgG1 antibody; WT IgG1 antibody; copies: 2 + 2
As usually defined, the Kd is a measure of binding affinity in units of concentration. In the case of B3, the Kd in [2] was around 240 nM. The binding result in the assay with FcγRIIa - H131 and with FcγRIIa - R131 was “binds” throughout.

B4: 4G7 Hybrid S239D/I332E (murine 4G7 H0/L0 variable regions, hybrid IgG1/IgG2 constant region with S239D/I332E) (antibody)
heavy: EVQLQQSGPELIKPGASVKMSCKASGYTFTSYVMHWVKQKPGQGLEWIGYINPYNDGTKYNEKFKGKATLTSDKSSSTAYMELSSLTSEDSAVYYCARGTYYYGSRVFDYWGQGTTLTVSSASTKGPSVFPLAPSSKSTSGGTAALGCLVKDYFPEPVTVSWNSGALTSGVHTFPAVLQSSGLYSLSSVVTVPSSSLGTQTYICNVNHKPSNTKVDKKVEPKSCDKTHTCPPCPAPELLGGPDVFLFPPKPKDTLMISRTPEVTCVVVDVSHEDPEVQFNWYVDGVEVHNAKTKPREEQFNSTFRVVSVLTVVHQDWLNGKEYKCKVSNKALPAPEEKTISKTKGQPREPQVYTLPPSREEMTKNQVSLTCLVKGFYPSDIAVEWESNGQPENNYKTTPPMLDSDGSFFLYSKLTVDKSRWQQGNVFSCSVMHEALHNHYTQKSLSLSPGK
light: DIVMTQAAPSIPVTPGESVSISCRSSKSLLNSNGNTYLYWFLQRPGQSPQLLIYRMSNLASGVPDRFSGSGSGTAFTLRISRVEAEDVGVYYCMQHLEYPFTFGAGTKLELKRTVAAPSVFIFPPSDEQLKSGTASVVCLLNNFYPREAKVQWKVDNALQSGNSQESVTEQDSKDSTYSLSSTLTLSKADYEKHKVYACEVTHQGLSSPVTKSFNRGEC
notes: also called effector function enhanced anti-CD19; enhanced effector function anti-CD19; copies: 2 + 2
In general, EC50 refers to the midpoint of the concentration-response curve. In the case of B4, the Kd in assay [2] is around 4.7 nM; in [3], around 16.7 nM. For the same molecule, in assay [4], the “affinity enhancement relative to WT” value is around 50 fold. For the same molecule, the midpoint of the response with human CD19 [5], the EC50, lay at 1.2 nM. The binding result with FcγRIIa - H131 and with FcγRIIa - R131 was “binds” in each case.

(Values after patent US20100272723A1 (Xencor, published 2010).)
